No end group written: not given here.
Assays:
angiopoietin-2 (Ang2) [1] = target: T1, angiopoietin-2 (Ang2) (human, UniProt O15123 68-496, limits assumed, biotinylated in Examples 22-24 (R&D cat#BT633)); test: ELISA, rhAng2 coated, MRD-MBP fusion detected with HRP anti-MBP mAb; EC50 from a 4 parameter fit
T1 construct: also called rhAng2; recombinant Ang2
T1 sequence (looked up): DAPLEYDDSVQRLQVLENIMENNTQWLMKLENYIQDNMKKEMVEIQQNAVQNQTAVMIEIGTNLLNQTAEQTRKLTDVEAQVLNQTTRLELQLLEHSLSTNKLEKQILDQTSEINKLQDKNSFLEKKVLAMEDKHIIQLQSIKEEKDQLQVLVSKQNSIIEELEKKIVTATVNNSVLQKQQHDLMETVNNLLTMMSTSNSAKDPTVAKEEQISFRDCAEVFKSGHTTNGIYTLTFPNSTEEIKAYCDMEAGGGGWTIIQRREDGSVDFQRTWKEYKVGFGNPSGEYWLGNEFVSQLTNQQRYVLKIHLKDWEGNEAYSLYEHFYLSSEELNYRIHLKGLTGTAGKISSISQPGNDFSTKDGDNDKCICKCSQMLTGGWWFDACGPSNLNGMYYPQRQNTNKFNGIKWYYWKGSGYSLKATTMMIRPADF

[2] = target: T2, insulin-like growth factor-I receptor (IGF1R) (UniProt P08069 31-932, limits assumed); test: ELISA on coated antigen, absorbance at 405 nm, BSA-coated wells as control; single condition
T2 construct: also called immobilized IGF-1R; IGR1R

[3] = target: integrin αvβ3 (ELISA antigen) (UniProt P06756 31-992; P05106 27-718, limits assumed); test: ELISA on coated antigen, absorbance at 405 nm, BSA-coated wells as control; single condition; the bar is labelled Antigen, taken as the target of the MRD of the construct
Sequence of integrin αvβ3 (ELISA antigen) (P06756 31-992 limits assumed, chain 1 of 2): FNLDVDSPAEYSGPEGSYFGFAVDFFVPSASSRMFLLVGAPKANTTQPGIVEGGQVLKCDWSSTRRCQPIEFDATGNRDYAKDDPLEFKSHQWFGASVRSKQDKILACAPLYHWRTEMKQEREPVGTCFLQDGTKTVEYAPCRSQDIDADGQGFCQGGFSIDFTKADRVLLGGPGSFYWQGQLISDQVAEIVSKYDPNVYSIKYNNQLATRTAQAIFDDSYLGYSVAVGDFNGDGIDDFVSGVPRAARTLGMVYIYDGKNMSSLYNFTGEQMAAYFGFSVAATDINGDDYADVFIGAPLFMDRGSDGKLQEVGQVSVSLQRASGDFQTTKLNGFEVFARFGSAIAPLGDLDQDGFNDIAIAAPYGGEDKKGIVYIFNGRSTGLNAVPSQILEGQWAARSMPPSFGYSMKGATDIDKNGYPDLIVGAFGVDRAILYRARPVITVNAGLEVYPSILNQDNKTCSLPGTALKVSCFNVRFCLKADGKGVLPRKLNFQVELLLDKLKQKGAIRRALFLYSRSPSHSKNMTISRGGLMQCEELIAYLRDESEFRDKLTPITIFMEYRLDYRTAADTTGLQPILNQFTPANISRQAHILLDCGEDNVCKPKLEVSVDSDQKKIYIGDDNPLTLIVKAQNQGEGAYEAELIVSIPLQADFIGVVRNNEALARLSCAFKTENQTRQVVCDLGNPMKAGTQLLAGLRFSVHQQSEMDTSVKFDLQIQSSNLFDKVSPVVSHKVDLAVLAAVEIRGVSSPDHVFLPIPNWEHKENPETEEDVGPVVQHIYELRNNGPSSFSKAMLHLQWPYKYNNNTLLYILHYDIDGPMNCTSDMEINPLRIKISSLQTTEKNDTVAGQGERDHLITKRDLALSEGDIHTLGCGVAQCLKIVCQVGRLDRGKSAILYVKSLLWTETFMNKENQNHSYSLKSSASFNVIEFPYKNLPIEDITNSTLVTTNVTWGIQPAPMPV
Sequence of integrin αvβ3 (ELISA antigen) (P05106 27-718 limits assumed, chain 2 of 2): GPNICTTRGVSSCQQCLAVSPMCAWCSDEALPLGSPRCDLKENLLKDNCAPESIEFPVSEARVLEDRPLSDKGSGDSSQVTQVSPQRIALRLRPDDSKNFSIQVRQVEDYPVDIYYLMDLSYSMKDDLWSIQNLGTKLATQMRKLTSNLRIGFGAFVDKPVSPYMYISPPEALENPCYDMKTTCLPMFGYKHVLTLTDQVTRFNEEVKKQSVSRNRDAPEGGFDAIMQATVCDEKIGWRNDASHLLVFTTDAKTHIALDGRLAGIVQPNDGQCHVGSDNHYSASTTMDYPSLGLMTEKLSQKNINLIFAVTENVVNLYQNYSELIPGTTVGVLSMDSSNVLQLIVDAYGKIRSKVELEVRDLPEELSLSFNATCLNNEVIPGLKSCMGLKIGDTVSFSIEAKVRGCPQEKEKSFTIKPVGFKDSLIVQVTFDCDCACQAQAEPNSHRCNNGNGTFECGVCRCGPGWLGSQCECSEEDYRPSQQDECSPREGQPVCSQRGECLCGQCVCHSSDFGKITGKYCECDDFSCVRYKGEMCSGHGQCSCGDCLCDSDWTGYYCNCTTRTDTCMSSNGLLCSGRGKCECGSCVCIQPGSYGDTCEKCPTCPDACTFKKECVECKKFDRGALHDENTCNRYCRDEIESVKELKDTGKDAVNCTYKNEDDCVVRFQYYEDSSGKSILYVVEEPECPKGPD

angiopoietin-2 (Ang2) [4] = target: T1, angiopoietin-2 (Ang2); test: MBP fusion protein tested for binding to Ang2; method not restated (direct-binding ELISA in Example 19)
Protocol: For detection of direct binding of MRD-MBP fusions to Ang2, the following ELISA was performed. […] MBP fusion proteins were serially diluted in Blocking buffer and added to wells for 2 hours at RT. After washing (8×300 μl wash buffer), samples were treated with HRP-mouse anti MBP mAb (NEB, cat #E8038S), diluted 1:4000 in Blocking buffer. After incubation for 1 hour at RT, wells were washed (8×3000 wash buffer) prior to receiving 100 μl of TMB substrate (KPL Laboratories). Color development was stopped with 100 μl of H₂SO₄, and absorbance was read at 450 nm.

| Binder | EC50 (angiopoietin-2 (Ang2) [1]) [nM] | EC50 (angiopoietin-2 (Ang2) [4]) [nM] | further results |
| --- | --- | --- | --- |
| MGAQTNFMPMHDDELLLYEQFILQQGLE (other) [L1-7D MHD] | 17 |  |  |
| MGAQTNFMPMNDDELLLYEQFILQQGLE (other) [L1-7D MND] | 0.411 |  |  |
| MGAQTNFMPMSDDELLLYEQFILQQGLE (other) [L1-7D MSD] | 1.38 |  |  |
| MGAQTNFMPMGDDELLLYEQFILQQGLE (other) [L1-7D MGD] | 0.6 |  |  |
| MGAQTNFMPMTDDELLLYEQFILQQGLE (other) [L1-7D MTD] | 7.34 |  |  |
| PGSGGGSMGAQTNFMPMDNDELLLYEQFILQQGLE (other) [Lm32 KtoS] | 0.199 |  |  |
| Her-1L-RP (bispecific antibody, also called Her-lL-RP; not shown: kappa light chain constant region; heavy chain constant region) light (part 1 of 2): not shown light (part 2 of 2): SSGGGGSGGGGGGSSRSSSFYSCLESLVNGPAEKSRGQWDGCRKK heavy: not shown |  |  | binding result [2]: no binding (tested: not shown) |
| Her-sL-RGD4C (bispecific antibody, also called C-terminal fusion of integrin αvβ3 targeting MRD with the ErbB2 antibody with the short linker peptide; not shown: kappa light chain constant region; heavy chain constant region) light (part 1 of 2): not shown light (part 2 of 2): GGGSCDCRGDCFC heavy: not shown |  |  | binding result [3]: no binding (tested: not shown) |
| KSLSLSPGSGGGSMGAQTNFMPMDNDELLLYEQFI (other, not shown: large carriers; small tags and cut ends, not fully specified (N-terminus); also: fused to maltose binding protein carrier at N-terminus) [LM32 variant SEQ ID NO:142 expressed as MBP fusion protein] |  | 1.08 |  |
| KSLSLSPGSGGGSMGAQTNFMPMDNEELLLYEQFI (other, not shown: large carriers; small tags and cut ends, not fully specified (N-terminus); also: fused to maltose binding protein carrier at N-terminus) [LM32 variant SEQ ID NO:143 expressed as MBP fusion protein] |  | 20.7 |  |
| KSLSLSPGSGGGSMGAQTNFMPMDNDEGLLYEQFILQQGLE (other, not shown: large carriers; small tags and cut ends, not fully specified (N-terminus); also: fused to maltose binding protein carrier at N-terminus) [LM32 variant SEQ ID NO:88 expressed as MBP fusion protein] |  | 1.04 |  |
| KSLSLSPGSGGGSMGAQTNFMPMDNDEALLYEQFILQQGLE (other, not shown: large carriers; small tags and cut ends, not fully specified (N-terminus); also: fused to maltose binding protein carrier at N-terminus) [LM32 variant SEQ ID NO:90 expressed as MBP fusion protein] |  | 0.182 |  |
| KSLSLSPGSGGGSMGAQTNFMPMDNDELTLYEQFILQQGLE (other, not shown: large carriers; small tags and cut ends, not fully specified (N-terminus); also: fused to maltose binding protein carrier at N-terminus) [LM32 variant SEQ ID NO:91 expressed as MBP fusion protein] |  | 1.42 |  |
| KSLSLSPGSGGGSMGAQTNFMPMDNDEGLLYEQFIYQQGLE (other, not shown: large carriers; small tags and cut ends, not fully specified (N-terminus); also: fused to maltose binding protein carrier at N-terminus) [LM32 variant SEQ ID NO:93 expressed as MBP fusion protein] |  | 0.902 |  |
| KSLSLSPGSGGGSMGAQTNFMPMDNDEALLYEQFIYQQGLE (other, not shown: large carriers; small tags and cut ends, not fully specified (N-terminus); also: fused to maltose binding protein carrier at N-terminus) [LM32 variant SEQ ID NO:94 expressed as MBP fusion protein] |  | 0.392 |  |
| KSLSLSPGSGGGSMGAQTNFMPMDNDEGLLYEEFILQQGLE (other, not shown: large carriers; small tags and cut ends, not fully specified (N-terminus); also: fused to maltose binding protein carrier at N-terminus) [LM32 variant SEQ ID NO:96 expressed as MBP fusion protein] |  | 0.922 |  |
| KSLSLSPGSGGGSMGAQTNFMPMDNDEALLYEEFILQQGLE (other, not shown: large carriers; small tags and cut ends, not fully specified (N-terminus); also: fused to maltose binding protein carrier at N-terminus) [LM32 variant SEQ ID NO:97 expressed as MBP fusion protein] |  | 0.426 |  |
| KSLSLSPGSGGGSMGAQTNFMPMDQDELLLYEQFILQQGLE (other, not shown: large carriers; small tags and cut ends, not fully specified (N-terminus); also: fused to maltose binding protein carrier at N-terminus) [LM32 variant SEQ ID NO:99 expressed as MBP fusion protein] |  | 0.383 |  |
| KSLSLSPGSGGGSMGAQTNFMPMDDDELLLYEQFILQQGLE (other, not shown: large carriers; small tags and cut ends, not fully specified (N-terminus); also: fused to maltose binding protein carrier at N-terminus) [LM32 variant SEQ ID NO:100 expressed as MBP fusion protein] |  | 0.24 |  |
